Patent US10702592B2, “Peptides and combination of peptides for use in immunotherapy against NHL and other cancers” (Immatics Biotechnologies GmbH, priority 2016, dated 2020)

Target: HLA-A*02:01 (Homo sapiens, UniProt P04439, D140Y/D185E/D98H/E176V/E277Q/G131W/G231S/I119V/I121R/I166T/I218V/L300P/L318F/N151K/N90K/P208A/P217A/Q86G/Q94H/R138H/R169H/T345S)
Experiment: MHC binding assay (UV-ligand exchange, beta2m ELISA)
Conditions: binding to HLA-A*02:01, UV-ligand exchange
Text: Candidate peptides for T cell based therapies according to the present invention were further tested for their MHC binding capacity (affinity). The individual peptide-MHC complexes were produced by UV-ligand exchange, where a UV-sensitive peptide is cleaved upon UV-irradiation, and exchanged with the peptide of interest as analyzed. Only peptide candidates that can effectively bind and stabilize the peptide-receptive MHC molecules prevent dissociation of the MHC complexes. To determine the yield of the exchange reaction, an ELISA was performed based on the detection of the light chain (β2m) of stabilized MHC complexes. The assay was performed as generally described in Rodenko et al. (Rodenko et al., 2006).
96 well MAXISorp plates (NUNC) were coated over night with 2 ug/ml streptavidin in PBS at room temperature, washed 4× and blocked for 1 h at 37° C. in 2% BSA containing blocking buffer. Refolded HLA-A*02:01/MLA-001 monomers served as standards, covering the range of 15-500 ng/ml. Peptide-MHC monomers of the UV-exchange reaction were diluted 100 fold in blocking buffer. Samples were incubated for 1 h at 37° C., washed four times, incubated with 2 ug/ml HRP conjugated anti-β2m for 1 h at 37° C., washed again and detected with TMB solution that is stopped with […]. Absorption was measured at 450 nm. Candidate peptides that show a high exchange yield (preferably higher than 50%, most preferred higher than 75%) are generally preferred for a generation and production of antibodies or fragments thereof, and/or T cell receptors or fragments thereof, as they show sufficient avidity to the MHC molecules and prevent dissociation of the MHC complexes.

Peptide exchange (MHC class I binding score, peptide exchange yield)	Substance
“++++” (≥75% = ++++)	172 (TLQDSLEFI; listed as Homo sapiens) [compound 172]
“++++” (≥75% = ++++)	173 (VILDSVASV; listed as Homo sapiens) [compound 173]
“++++” (≥75% = ++++)	174 (VLVEITDVDFAA; listed as Homo sapiens) [compound 174]
“+++” (≥50 = +++)	175 (VMESILLRL; listed as Homo sapiens) [compound 175]
“+++” (≥50 = +++)	176 (YLHIYESQL; listed as Homo sapiens) [compound 176]
“+++” (≥50 = +++)	177 (YLYEAEEATTL; listed as Homo sapiens) [compound 177]
“+++” (≥50 = +++)	178 (YVLQGEFFL; listed as Homo sapiens) [compound 178]
“+++” (≥50 = +++)	179 (FVDTNLYFL; listed as Homo sapiens) [compound 179]
“+++” (≥50 = +++)	180 (GILQLVESV; listed as Homo sapiens) [compound 180]
“+++” (≥50 = +++)	181 (LLFDQNDKV; listed as Homo sapiens) [compound 181]
“++++” (≥75% = ++++)	182 (LLPPPPPVA; listed as Homo sapiens) [compound 182]
“+++” (≥50 = +++)	183 (VLFETVLTI; listed as Homo sapiens) [compound 183]
“+++” (≥50 = +++)	184 (AVLGTSWQL; listed as Homo sapiens) [compound 184]
“+” (≥10% = +)	185 (FIAQLNNVEL; listed as Homo sapiens) [compound 185]
“+++” (≥50 = +++)	186 (FLDVSRDFV; listed as Homo sapiens) [compound 186]

Continued, substance first:

Substance	Peptide exchange (MHC class I binding score, peptide exchange yield)
160 (LLPPPSPAA; listed as Homo sapiens) [compound 160]	“+++” (≥50 = +++)
161 (NLMLELETV; listed as Homo sapiens) [compound 161]	“+++” (≥50 = +++)
162 (RLADLKVSI; listed as Homo sapiens) [compound 162]	“++++” (≥75% = ++++)
163 (SIFDAVLKGV; listed as Homo sapiens) [compound 163]	“++++” (≥75% = ++++)
164 (SLFDGAVISTV; listed as Homo sapiens) [compound 164]	“+++” (≥50 = +++)
165 (KLLEEIEFL; listed as Homo sapiens) [compound 165]	“+++” (≥50 = +++)
167 (SLFSITKSV; listed as Homo sapiens) [compound 167]	“+++” (≥50 = +++)
168 (SLLSPLLSV; listed as Homo sapiens) [compound 168]	“+++” (≥50 = +++)
169 (SSLEENLLHQV; listed as Homo sapiens) [compound 169]	“+++” (≥50 = +++)
171 (TLLDVISAL; listed as Homo sapiens) [compound 171]	“++++” (≥75% = ++++)
